# Measurements: patent US8465945B2, “Method for production and use of mite group 1 proteins” (Merck Patent GmbH, priority 1999, dated 2013)
# Assays:
# [1] = tested on: IgE from mite-allergic or normal human sera; assay: ELISA, binding of IgE from human sera to coated Der f 1 proteins or mite extracts, detected with FcεR1α-biotin
# [2] = tested on: IgE from mite-allergic dog sera; assay: ELISA, binding of IgE from dog sera to coated Der f 1 proteins or mite extracts, detected with FcεR1α-biotin
# Experimental: Native or recombinant Der f 1 proteins in 100 μl CBC buffer (50 mM sodium carbonate, pH 9.6) were coated onto wells (100 ng per well) of Immulon II microtiter plates (available from Dynex Technologies, Chantilly, Va.) by incubation at 4° C., covered, overnight. Excess fluid was removed and wells were blocked with 200 μl Assay Buffer (4% fetal calf serum (available from Summit Laboratories, Fort Collins, Colo.) in phosphate buffered saline (PBS, recipe in Sambrook, ibid.), plus 0.05% Tween-20 (available from Sigma, St. Louis, Mo.)) for one hour at room temperature. Plates were then washed for 4 cycles on an automatic plate washer (Ultrawash, available from Dynatech Laboratories) using PBS with 0.05% Tween-20. […] Control wells were treated identically except that no serum was added. Plates were then washed as described above. Biotinylated human IgE receptor alpha chain (FcεR1α-biotin) (100 μl of 1.3 ng/ml) prepared as described in U.S. Pat. No. 5,945,294, ibid., was added and incubated for one hour at room temperature. After this incubation, plates were washed as described above. Streptavidin-horseradish peroxidase conjugate (0.5 mg/ml, available from KPL Labs, Gaithersburg, Md.) was added at a 1:5000 dilution in Assay Buffer for one hour at room temperature, after which plates were washed as described above. TMB Peroxidase substrate system, 2 part (available from KPL Labs, #0-76-00), added at 100 μl per well, was used according to the manufacturer's directions. The color reaction was allowed to proceed until good color development was reached (about 10-15 min); then the reaction was stopped with 100 μl per well of 1 M phosphoric acid. Bound IgE was determined by measuring absorbance (Optical Density, or OD) at 450 nm (nanometers) using an ELISA plate reader (such as Spectramax”, Molecular Devices, Sunnyvale, Calif.). Background OD readings in the control wells were subtracted from all numbers. Results are reported in Tables 1, 2 and 3 as OD multiplied by 1000. OD numbers greater than 100 are considered to be positive for a reaction with IgE. P. pastoris-expressed proteins are denoted in the Tables as Pichia expressed proteins.
# [3] = tested on: anti-Der f 1 MAb 6A8 (capture) and anti-Der f 1 MAb 4C1 (detection); assay: Monoclonal Capture ELISA; assay type: binding
# Experimental: (§1) Assays were carried out as follows. A microtiter plate as described in Example 5 was coated overnight at 4° C. with 100 ng/well of anti-Der f 1 protein monoclonal antibody 6A8, denoted herein as anti-Der f 1 MAb 6A8, provided by Dr. Martin Chapman. The plate was washed in the manner described above. The following proteins were then added to wells, having been diluted in Assay Buffer in a 2-fold dilution series, from 0.75 to 50 ng/well: Heska native Derf1, P. pastoris-expressed PDerf1303b, and E. coli-expressed PDerf1303c. After incubation for 1 hour at room temperature, plates were washed as described in Example 5. Then 100 μl per well of a 1:1000 dilution in Assay Buffer of biotinylated anti-Der f 1 monoclonal antibody 4C1, also denoted anti-Der f 1 MAb 4C1, provided by Dr. Martin Chapman, was added for 1 hour at room temperature. Plates were washed, streptavidin-HRP conjugate was added, and plates were developed as described in Example 5.
# [4] = tested on: IgE from pooled mite-allergic human sera; assay: Monoclonal Capture ELISA (Example 8B, Table 7); assay type: binding
# Experimental: as §1
# B. The Der f 1 proteins described in Example 8B were reacted as described in Example 6 with a pool of serum samples collected from 16 mite-allergic human patients.
molecule,measurement,setting,value
"Heska native Derf1: Native purified Der f 1 protein, purified as described in U.S. Ser. No. 09/292,225 (protein) TSACRINSVNVPSELDLRSLRTVTPIRMQGGCGSCWAFSGVAATESAYLAYRNTSLDLSEQELVDCASQHGCHGDTIPRGIEYIQQNGVVEERSYPYVAREQRCRRPNSQHYGISNYCQIYPPDVKQIREALTQTHTAIAVIIGIKDLRAFQHYDGRTIIQHDNGYQPNYHAVNIVGYGSTQGDDYWIVRNSWDTTWGDSGYGYFQAGNNLMMIEQYPYVVIM","OD, bound IgE","[1]; Assay Number 1, serum human 1916",51 OD multiplied by 1000
same,"OD, bound IgE","[1]; Assay Number 1, serum human3848",3123 OD multiplied by 1000
same,"OD, bound IgE","[1]; Assay Number 1, serum human 3958",3368 OD multiplied by 1000
same,"OD, bound IgE","[1]; Assay Number 1, serum human 3960",2279 OD multiplied by 1000
same,"OD, bound IgE","[1]; Assay Number 1, serum human 3961",1479 OD multiplied by 1000
same,"OD, bound IgE","[1]; Assay Number 1, serum human 3987",3741 OD multiplied by 1000
same,"OD, bound IgE","[1]; Assay Number 1, serum human 4289",777 OD multiplied by 1000
same,"OD, bound IgE","[1]; Assay Number 1, serum human 4467",1302 OD multiplied by 1000
same,"OD, bound IgE","[1]; Assay Number 1, serum human 5207",3051 OD multiplied by 1000
same,"OD, bound IgE","[1]; Assay Number 1, serum human pool",1732 OD multiplied by 1000
same,"OD, bound IgE","[1]; Assay Number 2, serum Heska human B",0 OD multiplied by 1000
same,"OD, bound IgE","[1]; Assay Number 2, serum Heska human C",0 OD multiplied by 1000
same,"OD, bound IgE","[1]; Assay Number 2, serum Heska human D",0 OD multiplied by 1000
same,"OD, bound IgE","[1]; Assay Number 2, serum Heska human E",19 OD multiplied by 1000
same,"OD, bound IgE","[1]; Assay Number 2, serum Heska human F",0 OD multiplied by 1000
same,"OD, bound IgE","[1]; Assay Number 2, serum Heska human G",1 OD multiplied by 1000
same,"OD, bound IgE","[1]; Assay Number 2, serum Heska human H",0 OD multiplied by 1000
same,"OD, bound IgE","[1]; Assay Number 2, serum Heska human I",1 OD multiplied by 1000
same,"OD, bound IgE","[1]; Assay Number 2, serum Heska human J",1 OD multiplied by 1000
same,"OD, bound IgE","[1]; Assay Number 2, serum Heska human K",0 OD multiplied by 1000
same,"OD, bound IgE","[1]; Assay Number 2, serum Heska human L",0 OD multiplied by 1000
same,"OD, bound IgE","[1]; Assay Number 2, serum Heska human M",51 OD multiplied by 1000
same,"OD, bound IgE","[1]; Assay Number 2, serum Heska human N",885 OD multiplied by 1000
same,"OD, bound IgE","[1]; Assay Number 2, serum Heska human O",0 OD multiplied by 1000
same,"OD, bound IgE","[1]; Assay Number 2, serum Heska human P",0 OD multiplied by 1000
same,"OD, bound IgE","[1]; Assay Number 2, serum Heska human Q",0 OD multiplied by 1000
same,"OD, bound IgE","[1]; Assay Number 2, serum Heska human R",1 OD multiplied by 1000
same,"OD, bound IgE","[1]; Assay Number 2, serum human 1916",62 OD multiplied by 1000
same,"OD, bound IgE","[1]; Assay Number 2, serum human 3848",2362 OD multiplied by 1000
same,"OD, bound IgE","[1]; Assay Number 2, serum human 3958",2235 OD multiplied by 1000
same,"OD, bound IgE","[1]; Assay Number 2, serum human 3960",1308 OD multiplied by 1000
same,"OD, bound IgE","[1]; Assay Number 2, serum human 3961",784 OD multiplied by 1000
same,"OD, bound IgE","[1]; Assay Number 2, serum human 3987",2664 OD multiplied by 1000
same,"OD, bound IgE","[1]; Assay Number 2, serum human 4289",589 OD multiplied by 1000
same,"OD, bound IgE","[1]; Assay Number 2, serum human 4467",1051 OD multiplied by 1000
same,"OD, bound IgE","[1]; Assay Number 2, serum human 5207",2746 OD multiplied by 1000
same,"OD, bound IgE","[1]; Assay Number 2, serum human pool",2599 OD multiplied by 1000
same,"OD, bound IgE","[2]; Assay Number 1, serum dog pool",750 OD multiplied by 1000
same,"OD, bound IgE","[2]; Assay Number 1, serum dog-1",3 OD multiplied by 1000
same,"OD, bound IgE","[2]; Assay Number 1, serum dog-2",2245 OD multiplied by 1000
same,"OD, bound IgE","[2]; Assay Number 1, serum dog-3",2839 OD multiplied by 1000
same,"OD, bound IgE","[2]; Assay Number 2, dog sera pool A 146",449 OD multiplied by 1000
same,"OD, bound IgE","[2]; Assay Number 2, dog sera pool KS338",101 OD multiplied by 1000
same,"OD, protein captured by MAb 6A8 and detected by MAb 4C1",[3]; 0.75 ng protein per well,1740 OD
same,"OD, protein captured by MAb 6A8 and detected by MAb 4C1",[3]; 1.5 ng protein per well,2043 OD
same,"OD, protein captured by MAb 6A8 and detected by MAb 4C1",[3]; 2.5 ng protein per well,2291 OD
same,"OD, protein captured by MAb 6A8 and detected by MAb 4C1",[3]; 3.1 ng protein per well,2219 OD
same,"OD, protein captured by MAb 6A8 and detected by MAb 4C1",[3]; 6.25 ng protein per well,2197 OD
same,"OD, protein captured by MAb 6A8 and detected by MAb 4C1",[3]; 25 ng protein per well,2142 OD
same,"OD, protein captured by MAb 6A8 and detected by MAb 4C1",[3]; 50 ng protein per well,2183 OD
"PDerf1303d: P. pastoris HCY288-expressed Der f 1 lacking N-glycosylation site, asparagine 133 replaced by glutamine (SEQ ID NO:38) (protein, listed as Dermatophagoides farinae) RPASIKTFEEFKKAFNKNYATVEEEEVARKNFLESLKYVEANKGAINHLSDLSLDEFKNRYLMSAEAFEQLKTQFDLNAETSACRINSVNVPSELDLRSLRTVTPIRMQGGCGSCWAFSGVAATESAYLAYRQTSLDLSEQELVDCASQHGCHGDTIPRGIEYIQQNGVVEERSYPYVAREQRCRRPNSQHYGISNYCQIYPPDVKQIREALTQTHTAIAVIIGIKDLRAFQHYDGRTIIQHDNGYQPNYHAVNIVGYGSTQGDDYWIVRNSWDTTWGDSGYGYFQAGNNLMMIEQYPYVVIM","OD, bound IgE","[1]; Table 6, pool of sera from 16 mite-allergic human patients, 6.2 ng protein per well",88 OD
same,"OD, bound IgE","[1]; Table 6, pool of sera from 16 mite-allergic human patients, 12.5 ng protein per well",347 OD
same,"OD, bound IgE","[1]; Table 6, pool of sera from 16 mite-allergic human patients, 25 ng protein per well",591 OD
same,"OD, bound IgE","[1]; Table 6, pool of sera from 16 mite-allergic human patients, 50 ng protein per well",779 OD
same,"OD, bound IgE","[1]; Table 6, pool of sera from 16 mite-allergic human patients, 100 ng protein per well",1097 OD
same,"OD, bound IgE","[1]; Table 6, pool of sera from 16 mite-allergic human patients, 200 ng protein per well",1448 OD
same,"OD, Monoclonal Capture ELISA",[4]; 0.39 ng protein per well,1380 OD
same,"OD, Monoclonal Capture ELISA",[4]; 0.78 ng protein per well,1963 OD
same,"OD, Monoclonal Capture ELISA",[4]; 1.55 ng protein per well,2626 OD
same,"OD, Monoclonal Capture ELISA",[4]; 3.1 ng protein per well,2913 OD
same,"OD, Monoclonal Capture ELISA",[4]; 6.25 ng protein per well,2991 OD
same,"OD, Monoclonal Capture ELISA",[4]; 12.5 ng protein per well,3037 OD
same,"OD, Monoclonal Capture ELISA",[4]; 25 ng protein per well,3007 OD
